Source: patent publication US20140087995A1 (published 2014)
Numbered stars: 1 amine (or outer) side, 2 acyl side, 3 side chain; on linkers, the order of the positions; unused ones are H or OH. Bridge positions count the residues as written; N and C are the ends. Side chains are listed from the residue outwards. Ends that are not written are not given here. * marks the point of attachment. C20 diacid = O=C(O)CCCCCCCCCCCCCCCCCCC(=O)*; γGlu = O=C(O)[C@H](CCC(=O)[*:2])N[*:1]

T1: human amylin receptor (human, UniProt P30988 25-474; O60896 24-148, limits assumed)
T1 construct: whole, on cells; Calcitonin receptor plus RAMP-3 gives the amylin 3(a) receptor; membranes of Amylin 3(a)/CRE-luc cells were used; also called hAmylin-R; hAmylinR
T1 sequence (looked up) 1: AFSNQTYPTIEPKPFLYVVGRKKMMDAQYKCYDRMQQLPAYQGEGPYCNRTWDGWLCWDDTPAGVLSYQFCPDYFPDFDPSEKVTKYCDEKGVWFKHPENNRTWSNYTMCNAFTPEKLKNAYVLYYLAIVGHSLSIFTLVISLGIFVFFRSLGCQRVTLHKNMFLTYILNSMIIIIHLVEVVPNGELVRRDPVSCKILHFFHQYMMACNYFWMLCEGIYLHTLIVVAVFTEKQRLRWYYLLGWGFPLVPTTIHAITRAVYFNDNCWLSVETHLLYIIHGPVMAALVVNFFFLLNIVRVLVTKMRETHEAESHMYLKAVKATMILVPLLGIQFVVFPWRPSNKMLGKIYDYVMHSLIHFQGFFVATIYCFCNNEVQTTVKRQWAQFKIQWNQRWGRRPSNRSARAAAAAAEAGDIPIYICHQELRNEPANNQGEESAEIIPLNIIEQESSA
T1 sequence (looked up) 2: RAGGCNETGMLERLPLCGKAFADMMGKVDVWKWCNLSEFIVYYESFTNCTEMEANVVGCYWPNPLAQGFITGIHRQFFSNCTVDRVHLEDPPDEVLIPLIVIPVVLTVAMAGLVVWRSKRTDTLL


Each binder was assayed against T1, human amylin receptor (assay: SPA competition binding, displacement of 125I-rat amylin from membranes with human amylin 3(a) receptor (Assay V)).
How it was run: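 SPA beads with BHK Amylin 3(a)/CRE-luc cell membranes (35 ng/μL final) in 50 mM Hepes pH 7.4, 1 mM CaCl2, 5 mM MgCl₂, 0.1% OA, 0.02% Tween20.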

IC50 | Binder
0.957 nM | K([γGlu-γGlu-C20 diacid])CNTATCATQRLAEFLRHSSPNFGAIPSSTNVGRETY-NH2 (disulfide 2-7; N-terminus assumed; SMILES CC[C@H](C)[C@H](NC(=O)[C@H](C)NC(=O)CNC(=O)[C@H](Cc1ccccc1)NC(=O)[C@H](CC(N)=O)NC(=O)[C@@H]1CCCN1C(=O)[C@H](CO)NC(=O)[C@H](CO)NC(=O)[C@H](Cc1c[nH]cn1)NC(=O)[C@H](CCCNC(=N)N)NC(=O)[C@H](CC(C)C)NC(=O)[C@H](Cc1ccccc1)NC(=O)[C@H](CCC(=O)O)NC(=O)[C@H](C)NC(=O)[C@H](CC(C)C)NC(=O)[C@H](CCCNC(=N)N)NC(=O)[C@H](CCC(N)=O)NC(=O)[C@@H](NC(=O)[C@H](C)NC(=O)[C@@H]1CSSC[C@H](NC(=O)[C@@H](N)CCCCNC(=O)CC[C@H](NC(=O)CC[C@H](NC(=O)CCCCCCCCCCCCCCCCCCC(=O)O)C(=O)O)C(=O)O)C(=O)N[C@@H](CC(N)=O)C(=O)N[C@@H]([C@@H](C)O)C(=O)N[C@@H](C)C(=O)N[C@@H]([C@@H](C)O)C(=O)N1)[C@@H](C)O)C(=O)N1CCC[C@H]1C(=O)N[C@@H](CO)C(=O)N[C@@H](CO)C(=O)N[C@H](C(=O)N[C@@H](CC(N)=O)C(=O)N[C@H](C(=O)NCC(=O)N[C@@H](CCCNC(=N)N)C(=O)N[C@@H](CCC(=O)O)C(=O)N[C@H](C(=O)N[C@@H](Cc1ccc(O)cc1)C(N)=O)[C@@H](C)O)C(C)C)[C@@H](C)O, also called 14E, 17R, 21P, 27P, 34R, 35E)
0.121 nM | K([γGlu-γGlu-C20 diacid])CNTATCATQRLAEFLRHSSPNFGAIPSSTNVGPETY-NH2 (disulfide 2-7; N-terminus assumed; SMILES CC[C@H](C)[C@H](NC(=O)[C@H](C)NC(=O)CNC(=O)[C@H](Cc1ccccc1)NC(=O)[C@H](CC(N)=O)NC(=O)[C@@H]1CCCN1C(=O)[C@H](CO)NC(=O)[C@H](CO)NC(=O)[C@H](Cc1c[nH]cn1)NC(=O)[C@H](CCCNC(=N)N)NC(=O)[C@H](CC(C)C)NC(=O)[C@H](Cc1ccccc1)NC(=O)[C@H](CCC(=O)O)NC(=O)[C@H](C)NC(=O)[C@H](CC(C)C)NC(=O)[C@H](CCCNC(=N)N)NC(=O)[C@H](CCC(N)=O)NC(=O)[C@@H](NC(=O)[C@H](C)NC(=O)[C@@H]1CSSC[C@H](NC(=O)[C@@H](N)CCCCNC(=O)CC[C@H](NC(=O)CC[C@H](NC(=O)CCCCCCCCCCCCCCCCCCC(=O)O)C(=O)O)C(=O)O)C(=O)N[C@@H](CC(N)=O)C(=O)N[C@@H]([C@@H](C)O)C(=O)N[C@@H](C)C(=O)N[C@@H]([C@@H](C)O)C(=O)N1)[C@@H](C)O)C(=O)N1CCC[C@H]1C(=O)N[C@@H](CO)C(=O)N[C@@H](CO)C(=O)N[C@H](C(=O)N[C@@H](CC(N)=O)C(=O)N[C@H](C(=O)NCC(=O)N1CCC[C@H]1C(=O)N[C@@H](CCC(=O)O)C(=O)N[C@H](C(=O)N[C@@H](Cc1ccc(O)cc1)C(N)=O)[C@@H](C)O)C(C)C)[C@@H](C)O, also called 14E, 17R, 21P, 27P, 34P, 35E)
0.75 nM | K([γGlu-γGlu-C20 diacid])CNTATCATQRLAEFLRHSSPNFGAIPSSTNVGRNTY-NH2 (disulfide 2-7; N-terminus assumed; SMILES CC[C@H](C)[C@H](NC(=O)[C@H](C)NC(=O)CNC(=O)[C@H](Cc1ccccc1)NC(=O)[C@H](CC(N)=O)NC(=O)[C@@H]1CCCN1C(=O)[C@H](CO)NC(=O)[C@H](CO)NC(=O)[C@H](Cc1c[nH]cn1)NC(=O)[C@H](CCCNC(=N)N)NC(=O)[C@H](CC(C)C)NC(=O)[C@H](Cc1ccccc1)NC(=O)[C@H](CCC(=O)O)NC(=O)[C@H](C)NC(=O)[C@H](CC(C)C)NC(=O)[C@H](CCCNC(=N)N)NC(=O)[C@H](CCC(N)=O)NC(=O)[C@@H](NC(=O)[C@H](C)NC(=O)[C@@H]1CSSC[C@H](NC(=O)[C@@H](N)CCCCNC(=O)CC[C@H](NC(=O)CC[C@H](NC(=O)CCCCCCCCCCCCCCCCCCC(=O)O)C(=O)O)C(=O)O)C(=O)N[C@@H](CC(N)=O)C(=O)N[C@@H]([C@@H](C)O)C(=O)N[C@@H](C)C(=O)N[C@@H]([C@@H](C)O)C(=O)N1)[C@@H](C)O)C(=O)N1CCC[C@H]1C(=O)N[C@@H](CO)C(=O)N[C@@H](CO)C(=O)N[C@H](C(=O)N[C@@H](CC(N)=O)C(=O)N[C@H](C(=O)NCC(=O)N[C@@H](CCCNC(=N)N)C(=O)N[C@@H](CC(N)=O)C(=O)N[C@H](C(=O)N[C@@H](Cc1ccc(O)cc1)C(N)=O)[C@@H](C)O)C(C)C)[C@@H](C)O, also called 14E, 17R, 21P, 27P, 34R)
0.525 nM | K([γGlu-γGlu-C20 diacid])CNTATCATQRLAEFLRHSSPNFGAIPSSTNVGHETY-NH2 (disulfide 2-7; N-terminus assumed; SMILES CC[C@H](C)[C@H](NC(=O)[C@H](C)NC(=O)CNC(=O)[C@H](Cc1ccccc1)NC(=O)[C@H](CC(N)=O)NC(=O)[C@@H]1CCCN1C(=O)[C@H](CO)NC(=O)[C@H](CO)NC(=O)[C@H](Cc1c[nH]cn1)NC(=O)[C@H](CCCNC(=N)N)NC(=O)[C@H](CC(C)C)NC(=O)[C@H](Cc1ccccc1)NC(=O)[C@H](CCC(=O)O)NC(=O)[C@H](C)NC(=O)[C@H](CC(C)C)NC(=O)[C@H](CCCNC(=N)N)NC(=O)[C@H](CCC(N)=O)NC(=O)[C@@H](NC(=O)[C@H](C)NC(=O)[C@@H]1CSSC[C@H](NC(=O)[C@@H](N)CCCCNC(=O)CC[C@H](NC(=O)CC[C@H](NC(=O)CCCCCCCCCCCCCCCCCCC(=O)O)C(=O)O)C(=O)O)C(=O)N[C@@H](CC(N)=O)C(=O)N[C@@H]([C@@H](C)O)C(=O)N[C@@H](C)C(=O)N[C@@H]([C@@H](C)O)C(=O)N1)[C@@H](C)O)C(=O)N1CCC[C@H]1C(=O)N[C@@H](CO)C(=O)N[C@@H](CO)C(=O)N[C@H](C(=O)N[C@@H](CC(N)=O)C(=O)N[C@H](C(=O)NCC(=O)N[C@@H](Cc1c[nH]cn1)C(=O)N[C@@H](CCC(=O)O)C(=O)N[C@H](C(=O)N[C@@H](Cc1ccc(O)cc1)C(N)=O)[C@@H](C)O)C(C)C)[C@@H](C)O, also called 14E, 17R, 21P, 27P, 34H, 35E)
0.633 nM | K([γGlu-γGlu-C20 diacid])CNTATCATQRLAEFLRHSSPNFGAIPSSTNVGHNTY-NH2 (disulfide 2-7; N-terminus assumed; SMILES CC[C@H](C)[C@H](NC(=O)[C@H](C)NC(=O)CNC(=O)[C@H](Cc1ccccc1)NC(=O)[C@H](CC(N)=O)NC(=O)[C@@H]1CCCN1C(=O)[C@H](CO)NC(=O)[C@H](CO)NC(=O)[C@H](Cc1c[nH]cn1)NC(=O)[C@H](CCCNC(=N)N)NC(=O)[C@H](CC(C)C)NC(=O)[C@H](Cc1ccccc1)NC(=O)[C@H](CCC(=O)O)NC(=O)[C@H](C)NC(=O)[C@H](CC(C)C)NC(=O)[C@H](CCCNC(=N)N)NC(=O)[C@H](CCC(N)=O)NC(=O)[C@@H](NC(=O)[C@H](C)NC(=O)[C@@H]1CSSC[C@H](NC(=O)[C@@H](N)CCCCNC(=O)CC[C@H](NC(=O)CC[C@H](NC(=O)CCCCCCCCCCCCCCCCCCC(=O)O)C(=O)O)C(=O)O)C(=O)N[C@@H](CC(N)=O)C(=O)N[C@@H]([C@@H](C)O)C(=O)N[C@@H](C)C(=O)N[C@@H]([C@@H](C)O)C(=O)N1)[C@@H](C)O)C(=O)N1CCC[C@H]1C(=O)N[C@@H](CO)C(=O)N[C@@H](CO)C(=O)N[C@H](C(=O)N[C@@H](CC(N)=O)C(=O)N[C@H](C(=O)NCC(=O)N[C@@H](Cc1c[nH]cn1)C(=O)N[C@@H](CC(N)=O)C(=O)N[C@H](C(=O)N[C@@H](Cc1ccc(O)cc1)C(N)=O)[C@@H](C)O)C(C)C)[C@@H](C)O, also called 14E, 17R, 21P, 27P, 34H)
0.326 nM | K([γGlu-γGlu-C20 diacid])CNTATCATQRLAEFLRHSSPNFGAIPSSTNVGPRTY-NH2 (disulfide 2-7; N-terminus assumed; SMILES CC[C@H](C)[C@H](NC(=O)[C@H](C)NC(=O)CNC(=O)[C@H](Cc1ccccc1)NC(=O)[C@H](CC(N)=O)NC(=O)[C@@H]1CCCN1C(=O)[C@H](CO)NC(=O)[C@H](CO)NC(=O)[C@H](Cc1c[nH]cn1)NC(=O)[C@H](CCCNC(=N)N)NC(=O)[C@H](CC(C)C)NC(=O)[C@H](Cc1ccccc1)NC(=O)[C@H](CCC(=O)O)NC(=O)[C@H](C)NC(=O)[C@H](CC(C)C)NC(=O)[C@H](CCCNC(=N)N)NC(=O)[C@H](CCC(N)=O)NC(=O)[C@@H](NC(=O)[C@H](C)NC(=O)[C@@H]1CSSC[C@H](NC(=O)[C@@H](N)CCCCNC(=O)CC[C@H](NC(=O)CC[C@H](NC(=O)CCCCCCCCCCCCCCCCCCC(=O)O)C(=O)O)C(=O)O)C(=O)N[C@@H](CC(N)=O)C(=O)N[C@@H]([C@@H](C)O)C(=O)N[C@@H](C)C(=O)N[C@@H]([C@@H](C)O)C(=O)N1)[C@@H](C)O)C(=O)N1CCC[C@H]1C(=O)N[C@@H](CO)C(=O)N[C@@H](CO)C(=O)N[C@H](C(=O)N[C@@H](CC(N)=O)C(=O)N[C@H](C(=O)NCC(=O)N1CCC[C@H]1C(=O)N[C@@H](CCCNC(=N)N)C(=O)N[C@H](C(=O)N[C@@H](Cc1ccc(O)cc1)C(N)=O)[C@@H](C)O)C(C)C)[C@@H](C)O, also called 14E, 17R, 21P, 27P, 34P, 35R)
